Data: article PMC10747570

Biological target: Hibiscus green spot virus movement protein BMB2 (Hibiscus green spot virus)
Experiment: FRET or BRET; FRET-FLIM: GFP fluorescence lifetime measured in PAMBs of N. benthamiana leaf cells coexpressing BMB2-GFP (donor) and BMB2-mRFP (acceptor), 3 dpi; control without acceptor: BMB2-GFP with non-fused BMB2

Hibiscus green spot virus movement protein BMB2 (natural protein)
FRET efficiency: 69.8%
GFP excited-state lifetime with the acceptor: 0.74 ns
